The target in data set [1] is T1, Dna2405N (UniProt P38859).
T1 sequence: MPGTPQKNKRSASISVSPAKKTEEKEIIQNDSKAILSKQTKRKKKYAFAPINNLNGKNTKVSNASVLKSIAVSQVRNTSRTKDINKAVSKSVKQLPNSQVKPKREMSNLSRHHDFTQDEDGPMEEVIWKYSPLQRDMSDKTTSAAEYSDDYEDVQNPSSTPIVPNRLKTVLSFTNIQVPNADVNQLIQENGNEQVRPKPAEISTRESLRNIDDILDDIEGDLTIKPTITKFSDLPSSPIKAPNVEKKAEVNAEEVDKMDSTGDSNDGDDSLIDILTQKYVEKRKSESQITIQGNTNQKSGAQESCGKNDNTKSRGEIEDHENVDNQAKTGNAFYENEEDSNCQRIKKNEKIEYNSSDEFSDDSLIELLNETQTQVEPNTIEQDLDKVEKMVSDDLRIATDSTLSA
Description: competition.

Data set [2] concerns the target T2, GST-Dna2405N-5A-His6 (UniProt P38859 1-405, K41A;R42A;K43A;K44A;K45A).
T2 sequence: T1 sequence with K41A, R42A, K43A, K44A, K45A
Nature of the data set: EMSA.

Substitutions are numbered along the chain they refer to.

Molecule M13mp18 viral DNA (sscDNA) showed a binding signal (% inhibition of Hairpin binding) in data set [1] of more than 80.

B1: Hairpin (standard 5' hairpin flap; oligos 1, 2, 5) (structured_DNA)
DNA 1: GAAAACATTATTAATGGCGTCGAGCTAGGCACAAGGCGAACTGCTAACGG
DNA 2: CCGTTAGCAGTTCGCCTTGTGCCTA
DNA 3: GCGCATGTGCGTTCCGTCCGGTTCAAGCCGCAGCGGCTTGAACCGGACGCTCGACGCCATTAATAATGTTTTC
Take B1: the binding result in data set [2] is on record as “no binding”.

The values are drawn from paper PMC7984218.
